# Assay results from US20100021899 (NATIONAL UNIVERSITY CORPORATION TOKYO UNIVERSITY OF …, published 2010).
# B1: CaAp-3 (ssDNA)
# DNA: GTTCGGCACTTGGGCCCTTTTCTGTGTCTTTCTGTGCCCTTAGATAGTATGTGCAATCA
# Target: BSA (bovine serum albumin) (Bos taurus, UniProt P02769 P02769:25-607)
# Assay: ELONA; plate assay on immobilized CaDNA-3-11T; no concentration-dependent signal with BSA; PBS-T, room temperature
# Conditions: structure-switching stem-loop
# Chain of BSA (bovine serum albumin) (P02769 25-607, one chain of several): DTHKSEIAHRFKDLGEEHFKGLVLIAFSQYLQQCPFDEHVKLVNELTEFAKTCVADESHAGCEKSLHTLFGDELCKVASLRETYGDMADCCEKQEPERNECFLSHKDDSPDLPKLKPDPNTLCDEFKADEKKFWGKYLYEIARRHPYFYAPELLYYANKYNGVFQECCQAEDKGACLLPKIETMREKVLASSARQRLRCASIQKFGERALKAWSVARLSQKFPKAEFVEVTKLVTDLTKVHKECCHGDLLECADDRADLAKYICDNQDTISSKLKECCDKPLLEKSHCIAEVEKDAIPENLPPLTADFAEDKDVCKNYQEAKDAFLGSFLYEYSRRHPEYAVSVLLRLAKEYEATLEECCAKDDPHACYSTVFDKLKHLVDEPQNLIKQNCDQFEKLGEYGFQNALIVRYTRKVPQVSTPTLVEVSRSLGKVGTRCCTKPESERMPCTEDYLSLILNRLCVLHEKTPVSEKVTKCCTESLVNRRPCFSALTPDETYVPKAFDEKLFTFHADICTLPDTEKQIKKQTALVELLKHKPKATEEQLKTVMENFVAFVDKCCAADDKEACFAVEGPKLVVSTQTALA
binder,measurement,value
B1,binding result,no binding
